We go through one molecule from patent US20110113509, “RATIONALLY-DESIGNED MEGANUCLEASES FOR MAIZE GENOME ENGINEERING” (PRECISION BIOSCIENCES, INC., published 2011).

Where a chain is given by its changes, count along the chain named.

Broadly, the EC50 is the concentration that produces a half-maximal response. A high value points to lower potency in that assay.

The target of one data set is T1, LIG-34+ meganuclease (Artificial Sequence (derived from …)).
T1 chain: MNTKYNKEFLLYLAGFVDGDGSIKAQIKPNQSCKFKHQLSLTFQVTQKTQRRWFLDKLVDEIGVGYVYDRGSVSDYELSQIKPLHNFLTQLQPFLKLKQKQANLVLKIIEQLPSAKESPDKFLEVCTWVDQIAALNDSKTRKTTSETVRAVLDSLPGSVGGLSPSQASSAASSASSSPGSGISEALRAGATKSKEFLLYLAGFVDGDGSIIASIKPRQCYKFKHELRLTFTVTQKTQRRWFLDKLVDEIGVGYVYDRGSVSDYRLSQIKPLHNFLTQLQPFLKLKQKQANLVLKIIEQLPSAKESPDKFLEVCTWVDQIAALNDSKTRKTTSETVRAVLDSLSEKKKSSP
In words: cleavage_in_vitro; C50, enzyme to cut 50% of 10 nM linearized pUC19 substrate in 1 h; 37 C, SA buffer pH 8.0, 100 mM NaCl, 5 mM MgCl2, 5 mM EDTA. Conditions: tags: C-terminal 6xHis; N-terminal SV40 NLS; inferred). On the procedure:
(§1) The LIG-34 meganucleases were assayed for in vitro activity by incubation with linear, double-stranded DNA substrates containing the meganuclease recognition sequence. Synthetic oligonucleotides corresponding to both sense and antisense strands of the LIG-34 recognition site (SEQ ID NO: 2, SEQ ID NO: 3) were annealed and cloned into the SmaI site of the pUC19 plasmid by blunt-end ligation. The plasmid substrate was linearized with XmnI concurrently with the meganuclease digest. The enzyme digests contained 5 μl of 0.05 μM DNA substrate, 5 μl of meganuclease at varying concentrations (diluted in SA buffer, see below), 14.5 μl SA buffer, and 0.5 μl XmnI. LIG-34 enzyme concentration was varied from 5-400 nM (final concentration). Digests were incubated at 37° C. for 1 hour. Digests were stopped by adding 0.3 mg/ml Proteinase K and 0.5% SDS, and incubated for one hour at 37° C. Digests were analyzed on 1.5% agarose and visualized by ethidium bromide staining.
(§2) Digestion of the linearized plasmid with LIG34, LIG34+ or LIG34++ meganuclease produced two bands on the gel of the sizes corresponding to a simple cut at the LIG-34 site. All of the LIG-34 meganucleases efficiently cut the plasmid substrate harboring the LIG-34 recognition site. […] Thus, while all three enzymes efficiently cleave the LIG-34 site sequence, they do so with varying activity levels (LIG-34<LIG-34+<LIG-34++).

The target in the next data set is T2, LIG-34 meganuclease (Artificial Sequence (derived from …)).
T2 chain: T1 chain with T229E
The description is as above. Conditions: tags: C-terminal 6xHis; N-terminal SV40 NLS; inferred). The method, then:
as §1, §2

B1: LIG-34 recognition site (dsDNA)
DNA 1: TACGCGTACGTGTGAGGTATAT
DNA 2: ATATACCTCACACGTACGCGTA
In the case of B1, the EC50 in the data set with LIG-34+ meganuclease was roughly 13 nM; with LIG-34 meganuclease it was roughly 16 nM.
